The target of data set [1] is T1, GST-UP1 (hnRNP A1 fragment) (UniProt P49312 P49312:1-196). In words: EMSA; not shown. The note with it: tags: GST; label: 5'-32P. On the procedure:
(§1) Gel-shift assays were performed using single-stranded or partially double-stranded duplex substrates. A, the concentrations of GST-UP1 (G-UP1) used for each set of DNA substrate were 0.25, 0.5, 1.0 and 0 µM. Duplex formation was accomplished by incubating an equimolar amount of unlabeled Tb with labeled b' (or unlabeled aT with labeled a'). The partial duplex substrates migrate slightly above the position of labeled Tb and aT. […] B, gel shift assays were accomplished in the presence of an excess of cold oligonucleotides as competitor. Labeled Tb or aT (0.1 µM) was used in combination with cold Tb or aT (0, 0.625, 1.25, 2.5 and 5.0 µM) and G-UP1 (0.3 µM). (Open bar) vertebrate telomeric repeats; (solid bar) nontelomeric DNA. The asterisk (*) indicates which oligonucleotide was ^32P-labeled at its 5' end. Complexes were fractionated on 5% non-denaturating polyacrylamide gels. The position of the free and complexed oligonucleotides is shown.
A general note: In EMSA bound probe runs differently from free probe, usually more slowly.

Data set [2] addresses T2, UP1 (hnRNP A1 fragment) (UniProt P49312 P49312:1-196). Put plainly: EMSA; 1-4 uM protein, 0.5 uM TS10. To be noted: tags: GST removed by thrombin; label: 5'-32P. How it is done: (§2) GST-UP1 (G-UP1) at concentrations of 0, 0.2, 0.5, 1.0, 2.0 and 4.0 µM, or UP1 at concentrations of 0, 1.0, 2.0 and 4.0 µM, were incubated with TS10 (0.5 µM). Complexes were fractionated on 5% non-denaturating polyacrylamide gels. The position of complexes and free TS10 is shown.

Data set [3] deals with T1, GST-UP1 (hnRNP A1 fragment). In words: EMSA; 0.2-4.0 uM protein, 0.5 uM TS10; 2.5 mM MgCl2, 75 mM KCl, 30 C. The note with it: tags: GST; label: 5'-32P. On the procedure:
as §2

For data set [4], the target named is T2, UP1 (hnRNP A1 fragment). In words: EMSA; not shown. The note with it: tags: GST removed by thrombin.
The target of data set [5] is T1, GST-UP1 (hnRNP A1 fragment). Put plainly: EMSA; 0.25-1.0 uM protein. The note with it: tags: GST; label: 5'-32P. How it is done:
as §1

Data set [6] shares this target. Put plainly: EMSA; legend titled binding to single-stranded telomeric extensions in partial duplex. To be noted: tags: GST. How it is done: as §1

T1 sequence (P49312 1-196, one chain of several): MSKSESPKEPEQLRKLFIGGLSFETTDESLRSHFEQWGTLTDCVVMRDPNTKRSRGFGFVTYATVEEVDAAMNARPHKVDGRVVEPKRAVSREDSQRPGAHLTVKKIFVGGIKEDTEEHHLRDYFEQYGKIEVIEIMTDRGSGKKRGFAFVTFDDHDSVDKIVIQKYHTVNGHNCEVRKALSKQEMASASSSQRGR
T2 sequence (P49312 1-196, one chain of several): as above

Consider CCGGATCACAGGACC (ssDNA) [b'], for which the binding result in data set [1] is listed as “no binding”.

B1: TS10 (ssDNA)
DNA: TTAGGGTTAGGGTTAGGGTTAGGGTTAGGGTTAGGGTTAGGGTTAGGGTTAGGGTTAGGG
B1: the binding result (with UP1 (hnRNP A1 fragment) [2]; in data set [3]) was “binds” in each case.
Consider GGTTAGGGTTAGGGTTAG (ssDNA) [Tel2], for which the binding result with UP1 (hnRNP A1 fragment) [4] is “binds”.
As to CCAGGACACTAGGCC (ssDNA) [a'], the binding result in data set [1] is “no binding”.
For the molecule GGGGGTGGGAGCAGGGGAGG (ssDNA) [Ne4], the binding result in the data set with UP1 (hnRNP A1 fragment) [4] is on record as “no binding”.
Consider GGCCTAGTGTCCTGGTAGGGTTAGGGTTAGGGT (ssDNA) [aT], for which the binding result in data set [5] was “binds”.

B2: aT/a' partial duplex (mixed)
DNA 1: GGCCTAGTGTCCTGGTAGGGTTAGGGTTAGGGT
DNA 2: CCAGGACACTAGGCC
Consider B2, for which, in data set [6] (label: 5'-32P on a', 3' single-stranded telomeric overhang), the binding result was “binds”.
Take TAGGGTTAGGGTTAGGGTGGTCCTGTGATCCGG (ssDNA) [Tb]: in data set [5], the binding result is given as “binds”.

B3: Tb/b' partial duplex (mixed)
DNA 1: TAGGGTTAGGGTTAGGGTGGTCCTGTGATCCGG
DNA 2: CCGGATCACAGGACC
As for B3, the binding result in data set [6] (label: 5'-32P on b', 5' single-stranded telomeric overhang) is “binds”.

The values above are taken from patent US6358687, “Methods for monitoring the binding of A1/UP1 to single-stranded nucleic acid sequences, and to measure the effect of this binding on telomere extension and protection” (Telogene Inc.).
